Measurements reported in PMC6237807.

How the values were obtained:
[1] = test system: H-NS (15 kDa) (Vibrio cholerae A1552 (A1552-TntfoX)); experiment: DNA affinity pull-down, LC-MS/MS
[2] = test system: HupA, HU-alpha (9 kDa) (Vibrio cholerae A1552 (A1552-TntfoX)); experiment: DNA affinity pull-down, LC-MS/MS
[3] = test system: NdpA nucleoid-associated protein (38 kDa) (Vibrio cholerae A1552 (A1552-TntfoX)); experiment: DNA affinity pull-down, LC-MS/MS
[4] = test system: VCA0767 (TetR family transcriptional regulator, 29 kDa) (Vibrio cholerae A1552 (A1552-TntfoX)); experiment: DNA affinity pull-down, LC-MS/MS
[5] = target: N-terminally Strep-tagII tagged wild-type QstR (Vibrio cholerae); experiment: SEC; analytical SEC, Superdex 200 10/300 GL; 100 mM Tris-HCl pH 8.0, 300 mM NaCl, 1 mM EDTA; 0.5 ml/min; size estimated from a standard curve of protein standards

Substance | binding signal (total spectra) [1] | binding signal (total spectra) [2] | binding signal (total spectra) [3] | binding signal (total spectra) [4] | stoichiometry N [5]
qstR pull-down probe | 185 | 26 | 10 | 0 | –
gyrA pull-down probe | 16 | 8 | 6 | 0 | –
comEA pull-down probe | 35 | 8 | 8 | 5 | –
N-terminally Strep-tagII tagged wild-type QstR (natural protein) | – | – | – | – | 2
